Results taken from doi:10.1101/2021.05.30.446358.

Target: LH1 αβ-polypeptide pair of Rhodospirillum rubrum (Rhodospirillum rubrum) (UniProt P02947)
Assay: cryo-EM structure

For “LH1 αβ-polypeptide pair of Rhodospirillum rubrum (from UniProt P02947 1-52; P02950 1-49) (complex)”, the stoichiometry N was 16.
